Measurements reported in paper PMC11099023.

Molecular target: Asparaginase-like 1 protein (ASRGL1), recombinant full-length (UniProt Q7L266)
Test: differential scanning fluorimetry (protein thermal shift assay); recombinant ASRGL1 with increasing concentrations of TDP-43 in PBS (10 mM phosphate, 150 mM NaCl, pH 7.4), 30 min at 25 °C, ramp 25 to 99 °C; Tm plotted against TDP-43 concentration, inflection point of a sigmoidal fit …

Sequence of UniProt Q7L266 (Q7L266 whole entry): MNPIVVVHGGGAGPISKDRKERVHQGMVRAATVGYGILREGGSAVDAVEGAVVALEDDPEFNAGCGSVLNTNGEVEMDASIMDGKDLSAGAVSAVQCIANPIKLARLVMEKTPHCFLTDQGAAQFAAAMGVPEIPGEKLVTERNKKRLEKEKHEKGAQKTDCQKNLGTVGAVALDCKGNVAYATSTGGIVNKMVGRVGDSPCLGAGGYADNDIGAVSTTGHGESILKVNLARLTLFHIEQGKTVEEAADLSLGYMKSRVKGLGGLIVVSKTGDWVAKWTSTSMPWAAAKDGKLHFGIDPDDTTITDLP

TAR DNA-binding protein 43 (TDP-43), native form, recombinant full-length (from UniProt Q13148 1-414) (natural protein)
EC50: 36.1 nM
shift in Tm of ASRGL1 with 1 μM TDP-43: 10 °C
